In patent US12715902B2 (dated 2026):

Tests used:
Experiment in all cases: cytokine release
[1] = molecular target: T1, ATM G2695V peptide on HLA-A*03:01 (human)
T1 peptide: LAGVVNLPK
Description: (§1) To confirm the specificity and activity of nucleic acid encoding TCRs against ATM and ARID1A, each of the codon optimized nucleic acids were introduced into donor T cells. The chimeric TCR-transduced T cells (TRBV9*01+TRAV14/DV4 chimeric TCR) were co-cultured with dendritic cells expressing wildtype ATM or mutated forms of ATM (G2695V, G2695A, G2695C, or G2695S). The chimeric TCR-transduced T cells (TRBV25-1+TRAV20 chimeric TCR) were co-cultured with dendritic cells expressing wildtype ARID1A or ARID1A H1960fs. After overnight incubation, the supernatant was assessed for production of interferon-gamma using an ELISA. […] See FIGS. 9A and 9B, respectively.

[2] = molecular target: T2, ATM G2695C peptide on HLA-A*03:01 (human)
T2 peptide: LAGCVNLPK
Description: as §1

[3] = molecular target: T3, ATM G2695S peptide on HLA-A*03:01 (human)
T3 peptide: LAGSVNLPK
Description: as §1

[4] = molecular target: T4, ATM wild type (glycine at 2695) peptide on HLA-A*03:01 (human)
T4 peptide: LAGGVNLPK
Description: as §1

[5] = molecular target: T5, ATM G2695A peptide on HLA-A*03:01 (human)
T5 peptide: LAGAVNLPK
Description: as §1

B1: TRBV9*01+TRAV14/DV4 TCR (TCR, V domains shown)
Valpha: AQKITQTQPGMFVQEKEAVTLDCTYDTSDQSYGLFWYKQPSSGEMIFLIYQGSYDEQNATEGRYSLNFQKARKSANLVISASQLGDSAMYFCAMREQGAQKLVFGQGTRLTINP
Vbeta: DSGVTQTPKHLITATGQQVTLRCSPRSGDLSVYWYQQSLDQGLQFLIQYYNGEERAKGNILERFSAQQFPDLHSELNLSSLELGDSALYFCASSAAVHYGYTFGSGTRLTVV
B1: recognises [1]; recognises [2]; recognises [3]. B1: no recognition [4]; recognises [5].
